Patent publication US20130344592A1 (University of Pennsylvania, published 2013)
Positions of bridges follow the written chain, without caps; N, C: chain ends. No end group written: not given here.

T1: fH19-20 (human, UniProt P08603 1107-1231)
T1 construct: domain: SCR19-20; also called factor H SCR19-20; C-terminal two SCR of factor H
T1 sequence (looked up): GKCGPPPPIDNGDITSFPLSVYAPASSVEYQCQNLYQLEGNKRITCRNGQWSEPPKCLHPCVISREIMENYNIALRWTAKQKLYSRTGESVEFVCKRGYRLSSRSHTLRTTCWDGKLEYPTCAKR


Key:
fH19-20 [1] = molecular target: T1, fH19-20; assay: monoclonal phage ELISA on coated fragment
Experimental: (§1) Microtiter wells were coated overnight with either factor H or BSA at 5 μg/mL in PBS at 4° C., and saturated with 5% non-fat milk in PBST for 1 h. Completely separated individual phage plaques from the third round of screening were picked and amplified. Phage particles of each amplified individual phage plaque were added to both factor H- and BSA-coated wells in parallel and allowed to bind at RT for 1 h. After six washes with PBST, bound phages were detected with HRP-conjugated anti-M13 monoclonal antibody (GE Healthcare), using ABTS (Roche) for color development. Clones that bound to factor H but not to BSA were considered positive; single-stranded DNA from positive clones was prepared using an M13 kit (Qiagen, Valencia, Calif.) and sequenced by the DNA sequencing facility of the University of Pennsylvania.
(§2) To localize the binding sites on factor H of the positive clones, we further tested each clone by monoclonal phage ELISA for binding to factor H and its N- and C-terminal fragments, i.e. fH1-4 and fH19-20.

BSA = molecular target: T2, BSA (UniProt P02769 25-607); assay: monoclonal phage ELISA, BSA coated at 5 µg/mL
T2 construct: Only printed as 'BSA'
Experimental: as §1

Human factor H [2] = molecular target: T3, Human factor H (human, UniProt P08603 19-1231); assay: monoclonal phage ELISA on coated factor H
T3 construct: mature; Plasma-derived protein; also called fH
Experimental: as §1

Human factor H [3] = molecular target: T3, Human factor H; assay: peptide-phage competition ELISA on coated factor H
Experimental: (§3) Two approaches were used to evaluate the binding of synthetic peptides to factor H. First, we used peptide-phage competition assays, in which serially diluted synthetic peptide was added to its parent phage at the step of phage binding to coated factor H. The rest of the steps were performed as described above for monoclonal phage ELISA. Second, ELISA experiments were used to evaluate the binding of factor H to the immobilized peptide. Microtiter plates were coated with streptavidin (New England Biolabs) at 10 μg/ml in PBS at 4° C. overnight, and saturated with 2% BSA in PBS. After washing, either the biotinylated 5C6 peptide or a biotinylated control peptide (linear compstatin; […]) was added at 10 μg/ml and allowed to bind at RT for 30 min. The wells were washed again, and factor H serially diluted in PBS, starting with 2.5 μg/ml, was added. After 1 h of binding, the plates were washed, and bound factor H was detected with goat anti-human factor H polyclonal antibody (Quidel, San Diego, Calif.), followed by HRP-conjugated rabbit anti-goat IgG (Bio-Rad). […]

factor H SCR 1-4 (fH1-4) [4] = molecular target: T4, factor H SCR 1-4 (fH1-4) (human, UniProt P08603 19-264); assay: monoclonal phage ELISA on coated fragment
T4 construct: domain: SCR 1-4; also called N-terminal fragment of factor H; regulatory fH1-4 fragment
Experimental: as §1, §2

Human factor H [5] = molecular target: T3, Human factor H; assay: ELISA, biotinylated peptide on coated streptavidin, purified factor H detected by polyclonal antibody
Experimental: as §3, with “The wells were washed again, and factor H serially diluted in PBS, starting with 2.5 μg/ml, was added.” left out
(§4) The direct binding between the peptide and factor H was initially evaluated in an ELISA experiment, in which the biotinylated 5C6 peptide and a biotinylated control peptide of similar size and charge (i.e., linear compstatin) were captured by coated streptavidin and the binding of purified factor H was detected by polyclonal antibodies.

factor H SCR 1-4 (fH1-4) [6] = molecular target: T4, factor H SCR 1-4 (fH1-4); assay: SPR, biotinylated peptide captured on streptavidin chip, fragment injected
Experimental: The binding of factor H with surface-bound 5C6 peptide was further characterized using surface plasmon resonance (SPR) on a ProteOn XPR36 instrument (Bio-Rad Inc., Hercules, Calif.) using PBST (10 mM sodium phosphate, 150 mM NaCl, 0.005% Tween 20) as running buffer. Streptavidin (50 μg/ml in 10 mM sodium acetate pH 5.0) was immobilized on a GLC sensor chip at 30° C. using amine coupling. The biotinylated 5C6 peptide and a biotinylated control peptide (linear compstatin; see above) were captured on separate streptavidin-coated channels to a density of ˜200 resonance units (RU). Purified factor H (Complement Technologies, Tyler, Tex.) or recombinant fragments fH1-4 and fH19-20 were injected at a concentration of 100 nM for 2 rain at a flow rate of 25 μl/min with a dissociation phase of 6 min. A single injection of 2 M NaCl for 30 s was used to regenerate the surface between injections. […]
The binding activity and specificity was further validated using SPR assays, by simultaneously injecting factor H or its fragments over biotinylated 5C6 peptide and the control peptide, which were captured on a streptavidin-coated sensor chip. […] While a significant SPR response could also be detected for the fH19-20 fragment, this interaction was not stable and the signal rapidly returned to baseline. […]

factor H SCR 1-4 (fH1-4) [7] = molecular target: T4, factor H SCR 1-4 (fH1-4); assay: monoclonal phage ELISA
Experimental: as §1, §2

fH19-20 [8] = molecular target: T1, fH19-20; assay: monoclonal phage ELISA
Experimental: as §1, §2

Human factor H [9] = molecular target: T3, Human factor H; assay: ELISA, biotinylated peptide on coated streptavidin, factor H detected by polyclonal antibody
Experimental: as §3, with “The wells were washed again, and factor H serially diluted in PBS, starting with 2.5 μg/ml, was added.” left out
as §4

T2 sequence (P02769 25-607 limits assumed): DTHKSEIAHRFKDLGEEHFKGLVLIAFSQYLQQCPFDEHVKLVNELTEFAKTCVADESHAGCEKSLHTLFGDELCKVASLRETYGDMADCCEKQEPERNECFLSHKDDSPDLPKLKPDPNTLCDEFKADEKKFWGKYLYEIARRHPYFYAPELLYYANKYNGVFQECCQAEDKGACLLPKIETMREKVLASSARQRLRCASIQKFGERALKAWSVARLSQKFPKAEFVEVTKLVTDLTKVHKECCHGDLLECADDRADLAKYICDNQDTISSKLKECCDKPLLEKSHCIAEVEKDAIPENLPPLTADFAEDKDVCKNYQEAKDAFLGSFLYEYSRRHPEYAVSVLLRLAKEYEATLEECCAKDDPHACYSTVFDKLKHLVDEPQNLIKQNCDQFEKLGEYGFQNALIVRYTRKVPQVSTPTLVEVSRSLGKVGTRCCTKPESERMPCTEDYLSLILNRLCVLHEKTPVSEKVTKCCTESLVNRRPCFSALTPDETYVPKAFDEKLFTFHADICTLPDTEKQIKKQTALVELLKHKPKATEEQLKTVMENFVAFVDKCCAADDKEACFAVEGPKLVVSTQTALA
T4 sequence (P08603 19-264 limits assumed): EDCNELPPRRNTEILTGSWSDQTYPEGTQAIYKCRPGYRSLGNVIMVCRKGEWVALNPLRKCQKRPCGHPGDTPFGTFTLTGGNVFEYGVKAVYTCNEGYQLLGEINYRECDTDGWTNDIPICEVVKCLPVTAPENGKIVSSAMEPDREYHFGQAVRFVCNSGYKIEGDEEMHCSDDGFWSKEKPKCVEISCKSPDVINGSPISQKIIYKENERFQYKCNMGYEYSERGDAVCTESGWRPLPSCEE

Binder	binding result (BSA)	binding result (Human factor H [2])	binding result (factor H SCR 1-4 (fH1-4) [7])	binding result (fH19-20 [8])	further results
ASSGMCFTKKTVLC (not shown: not specified for the library) [Phage clone 4A1 (class 1, library ANL4)]	no binding	binds	–	–	binding result (fH19-20 [1]): binds
ASSSRCTYDHWCSH-NH2 (disulfide 6-12; N-terminus assumed; SMILES C[C@H](N)C(=O)N[C@@H](CO)C(=O)N[C@@H](CO)C(=O)N[C@@H](CO)C(=O)N[C@@H](CCCNC(=N)N)C(=O)N[C@H]1CSSC[C@@H](C(=O)N[C@@H](CO)C(=O)N[C@@H](Cc2c[nH]cn2)C(N)=O)NC(=O)[C@H](Cc2c[nH]c3ccccc23)NC(=O)[C@H](Cc2c[nH]cn2)NC(=O)[C@H](CC(=O)O)NC(=O)[C@H](Cc2ccc(O)cc2)NC(=O)[C@H]([C@@H](C)O)NC1=O, also called peptide 5C6) [Synthetic 5C6 peptide]	–	–	–	–	binding result (Human factor H [3]): binds
ASSYDVGYSHDCRF (not shown: not specified for the library) [Phage clone 5-2C6 (class 2, library ANL5)]	no binding	binds	–	–	binding result (factor H SCR 1-4 (fH1-4) [4]): binds
ASSSRCTYDHWCSH-{K(biotin)-NH2} (disulfide 6-12, Captured on coated streptavidin (polystyrene wells or SPR chips); also called immobilized 5C6 peptide; not shown: C-terminal lysine carrying biotin) [Biotinylated 5C6 peptide]	–	–	–	–	binding result (Human factor H [5]): binds; binding result (factor H SCR 1-4 (fH1-4) [6]): no binding (tested: 100 nM)
ASSSRCTYDHWCSH (also called parent phage of the 5C6 peptide; not shown: not specified for the library) [Phage clone 5C6 (class 3, library ANL5)]	no binding	binds	no binding	–	–
ASPSWCSYSHWCRH (not shown: not specified for the library) [Phage clone 5D1 (class 3, library ANL5)]	no binding	binds	no binding	no binding	–
ASSFKCDYSHWCLH (not shown: not specified for the library) [Phage clone 5E10 (class 3, library ANL5)]	no binding	binds	no binding	no binding	–
ASSNVCSYSYWCAH (not shown: not specified for the library) [Phage clone 5G11 (class 3, library ANL5)]	no binding	binds	no binding	no binding	–
ASSCMYSYWCTH (not shown: not specified for the library) [Phage clone 5-2B2 (class 3, library ANL5)]	no binding	binds	no binding	no binding	–
IAVVQDWGHHRAT (also: biotinylated, site not given here, captured on coated streptavidin; also called LC; negative control peptide) [Biotinylated control peptide (linear compstatin, Cys-to-Ala double mutant)]	–	–	–	–	binding result (Human factor H [9]): no binding
